Test results published in US20180030151A1 (MOGAM INSTITUTE FOR BIOMEDICAL RESEARCH, published 2018).
Like-named read-outs stand apart in the source and are kept apart here.

Tests used:
Test in all cases: cell-based or functional assay
[1] = biological target: T1, recombinant human TFPI (tissue factor pathway inhibitor) (human, UniProt P10646 29-304)
[2] = biological target: T1, recombinant human TFPI (tissue factor …); remark: listed apart in the source
[3] = biological target: T1, recombinant human TFPI (tissue factor …); remark: listed apart in the source
[4] = biological target: T1, recombinant human TFPI (tissue factor …); remark: listed apart in the source
[5] = biological target: T1, recombinant human TFPI (tissue factor …); remark: listed apart in the source
[6] = biological target: T1, recombinant human TFPI (tissue factor …); remark: listed apart in the source
[7] = biological target: T1, recombinant human TFPI (tissue factor …); remark: listed apart in the source
[8] = biological target: T1, recombinant human TFPI (tissue factor …); remark: listed apart in the source
[9] = biological target: T1, recombinant human TFPI (tissue factor …); remark: listed apart in the source
[10] = biological target: T1, recombinant human TFPI (tissue factor …); remark: listed apart in the source
[11] = biological target: T1, recombinant human TFPI (tissue factor …); remark: listed apart in the source

B1: clone 2 (antibody, V domains shown)
VH: EVQLVESGGGLVKPGGSLRLSCAASGFTFSSYAMNWVRQAPGKGLEWVSTITTGGSYTYYADSVEGRFTISRDNAKNSLYLQMNSLRAEDTAVYYCARQDGNFLMDYWGQGTLVTVSS
VL: DVVMTQTPLSLPVTLGQPASISCKSSPSLLDIDGKTYLNWLQQRPGQSPKRLIYLVSKLDSGVPDRFTGSGSGTDFTLKISRVEAEDVGVYYCWQGTHFPFTFGQGTKVEIKR
[1]
  FXa assay % of FXa alone, 2.5 nM Ab, 10 nM TFPI: 8.2%
  FXa assay % of FXa alone, 5 nM Ab, 10 nM TFPI: 45.3%
  FXa assay OD, 2.5 nM Ab, 10 nM TFPI: 0.0625
  FXa assay OD, 5 nM Ab, 10 nM TFPI: 0.345
  FXa assay OD, 10 nM Ab, 10 nM TFPI: 0.602
  FXa assay OD, 20 nM Ab, 10 nM TFPI: 0.58
[2]
  % of Normalized, TF/FVIIa/FX complex assay (FX 5 nM), Ab 1.56 nM: 5.5%
  % of Normalized, TF/FVIIa/FX complex assay (FX 5 nM), Ab 3.13 nM: 5.6%
  % of Normalized, TF/FVIIa/FX complex assay (FX 5 nM), Ab 6.25 nM: 6.4%
  % of Normalized, TF/FVIIa/FX complex assay (FX 5 nM), Ab 12.5 nM: 10.3%
  % of Normalized, TF/FVIIa/FX complex assay (FX 5 nM), Ab 25 nM: 51.4%
  % of Normalized, TF/FVIIa/FX complex assay (FX 5 nM), Ab 50 nM: 90.9%
  % of Normalized, TF/FVIIa/FX complex assay (FX 5 nM), Ab 100 nM: 103%
[3]
  A405, TF/FVIIa/FX complex assay (FX 5 nM), Ab 1.56 nM: 0.045
  A405, TF/FVIIa/FX complex assay (FX 5 nM), Ab 3.13 nM: 0.045
  A405, TF/FVIIa/FX complex assay (FX 5 nM), Ab 6.25 nM: 0.052
  A405, TF/FVIIa/FX complex assay (FX 5 nM), Ab 12.5 nM: 0.083
  A405, TF/FVIIa/FX complex assay (FX 5 nM), Ab 25 nM: 0.416
  A405, TF/FVIIa/FX complex assay (FX 5 nM), Ab 50 nM: 0.735
  A405, TF/FVIIa/FX complex assay (FX 5 nM), Ab 100 nM: 0.835
[4]
  FXa assay % of FXa alone, 2.5 nM Ab, 10 nM TFPI: 7.3%
  FXa assay % of FXa alone, 5 nM Ab, 10 nM TFPI: 32.8%
  FXa assay % of FXa alone, 10 nM Ab, 10 nM TFPI: 76.5%
  FXa assay % of FXa alone, 20 nM Ab, 10 nM TFPI: 87.2%
  FXa assay OD, 2.5 nM Ab, 10 nM TFPI: 0.0605
  FXa assay OD, 5 nM Ab, 10 nM TFPI: 0.271
  FXa assay OD, 10 nM Ab, 10 nM TFPI: 0.632
  FXa assay OD, 20 nM Ab, 10 nM TFPI: 0.721
[5]
  effect of inhibiting TFPI, FXa activity assay, Ab 10 nM: ~79%
  effect of inhibiting TFPI, FXa activity assay, Ab 20 nM: ~76%

B2: clone A67 (antibody, V domains shown)
VH: EVQLVESGGGLVKPGGSLRLSCAASGFTFSSYAMNWVRQAPGKGLEWVSTITTGGSYTYYADSVEGRFTISRDNAKNSLYLQMNSLRAEDTAVYYCARQDGNFLMDYWGQGTLVTVSS
VL: DVVMTQTPLSLPVTLGQPASISCKSSQSLLDLDGKTYLNWLQQRPGQSPKRLIYLVSKLDSGVPDRFTGSGSGTDFTLKISRVEAEDVGVYYCWQGTHFPFTFGQGTKVEIKR
[6]
  FXa assay % of FXa alone, 2.5 nM Ab, 10 nM TFPI: 9.2%
  FXa assay % of FXa alone, 5 nM Ab, 10 nM TFPI: 41.9%
  FXa assay OD, 2.5 nM Ab, 10 nM TFPI: 0.0745
  FXa assay OD, 5 nM Ab, 10 nM TFPI: 0.338
  FXa assay OD, 10 nM Ab, 10 nM TFPI: 0.543
  FXa assay OD, 20 nM Ab, 10 nM TFPI: 0.637
[7]
  A405, TF/FVIIa/FX complex assay, Ab 1.56 nM: 0.149
  A405, TF/FVIIa/FX complex assay, Ab 3.13 nM: 0.172
  A405, TF/FVIIa/FX complex assay, Ab 6.25 nM: 0.195
  A405, TF/FVIIa/FX complex assay, Ab 12.5 nM: 0.33
  A405, TF/FVIIa/FX complex assay, Ab 25 nM: 0.908
  A405, TF/FVIIa/FX complex assay, Ab 50 nM: 0.938
  A405, TF/FVIIa/FX complex assay, Ab 100 nM: 0.947
[8]
  % of Normalized, TF/FVIIa/FX complex assay, Ab 1.56 nM: 16.3%
  % of Normalized, TF/FVIIa/FX complex assay, Ab 3.13 nM: 18.7%
  % of Normalized, TF/FVIIa/FX complex assay, Ab 6.25 nM: 21.3%
  % of Normalized, TF/FVIIa/FX complex assay, Ab 12.5 nM: 36.1%
  % of Normalized, TF/FVIIa/FX complex assay, Ab 25 nM: 99.2%
  % of Normalized, TF/FVIIa/FX complex assay, Ab 50 nM: 102%
  % of Normalized, TF/FVIIa/FX complex assay, Ab 100 nM: 104%
[9]
  % of Normalized, TF/FVIIa/FX complex assay, Ab 1.56 nM: 16.1%
  % of Normalized, TF/FVIIa/FX complex assay, Ab 3.13 nM: 18.5%
  % of Normalized, TF/FVIIa/FX complex assay, Ab 6.25 nM: 20.5%
  % of Normalized, TF/FVIIa/FX complex assay, Ab 12.5 nM: 30.3%
  % of Normalized, TF/FVIIa/FX complex assay, Ab 25 nM: 95.8%
  % of Normalized, TF/FVIIa/FX complex assay, Ab 50 nM: 93.7%
  % of Normalized, TF/FVIIa/FX complex assay, Ab 100 nM: 95%
[10]
  A405, TF/FVIIa/FX complex assay, Ab 1.56 nM: 0.154
  A405, TF/FVIIa/FX complex assay, Ab 3.13 nM: 0.177
  A405, TF/FVIIa/FX complex assay, Ab 6.25 nM: 0.196
  A405, TF/FVIIa/FX complex assay, Ab 12.5 nM: 0.29
  A405, TF/FVIIa/FX complex assay, Ab 25 nM: 0.914
  A405, TF/FVIIa/FX complex assay, Ab 50 nM: 0.895
  A405, TF/FVIIa/FX complex assay, Ab 100 nM: 0.907
[5]
  effect of inhibiting TFPI, FXa activity assay, Ab 10 nM: ~67%
  effect of inhibiting TFPI, FXa activity assay, Ab 20 nM: ~79%
[11]
  FXa assay % of FXa alone, 2.5 nM Ab, 10 nM TFPI: 8%
  FXa assay % of FXa alone, 5 nM Ab, 10 nM TFPI: 28.8%
  FXa assay % of FXa alone, 10 nM Ab, 10 nM TFPI: 63.5%
  FXa assay % of FXa alone, 20 nM Ab, 10 nM TFPI: 75.8%
  FXa assay OD, 2.5 nM Ab, 10 nM TFPI: 0.065
  FXa assay OD, 5 nM Ab, 10 nM TFPI: 0.234
  FXa assay OD, 10 nM Ab, 10 nM TFPI: 0.516
  FXa assay OD, 20 nM Ab, 10 nM TFPI: 0.616
